# Measured values: publication PMC12749308 (Nature Communications, 2025)
# Like-named read-outs stand apart in the source and are kept apart here.
# T1: hPLD3 luminal domain H201A/H416A (hPLD3_HA) (Homo sapiens, UniProt Q8IV08 61-490, H201A;H416A)
# T1 sequence: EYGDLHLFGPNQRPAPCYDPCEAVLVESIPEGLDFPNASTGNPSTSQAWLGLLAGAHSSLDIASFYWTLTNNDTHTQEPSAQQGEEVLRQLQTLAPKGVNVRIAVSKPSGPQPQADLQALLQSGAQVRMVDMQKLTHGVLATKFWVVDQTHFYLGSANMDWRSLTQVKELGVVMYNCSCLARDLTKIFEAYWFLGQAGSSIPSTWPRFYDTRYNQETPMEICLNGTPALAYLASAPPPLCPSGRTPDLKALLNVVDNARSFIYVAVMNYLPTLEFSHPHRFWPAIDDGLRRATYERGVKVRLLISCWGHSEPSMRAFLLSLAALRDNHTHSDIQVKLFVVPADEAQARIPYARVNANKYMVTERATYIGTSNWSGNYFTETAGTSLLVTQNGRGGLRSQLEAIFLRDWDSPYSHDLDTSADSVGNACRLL
# Assays:
# [1] = molecular target: T1, hPLD3 luminal domain H201A/H416A …; test: EMSA
# cryo-EM structure [2] = molecular target: the molecule itself; test: cryo-EM structure
# cryo-EM structure [3] = molecular target: the molecule itself; test: cryo-EM structure; remark: listed apart in the source
binder,measurement,setting,value
ACGTTCCTGATGCTAAGTATGCACTTCATCGTCAAGCAATGCTATGCAT (ssDNA) [Substrate-I (49 nt)],binding result,[1],binds
"human PLD4 luminal domain, wild type (domain or fragment, UniProt Q96BZ4 91-506, looked up, six N-linked glycans observed in the cryo-EM structure) RDSCQLVLVESIPQDLPSAAGSPSAQPLGQAWLQLLDTAQESVHVASYYWSLTGPDIGVNDSSSQLGEALLQKLQQLLGRNISLAVATSSPTLARTSTDLQVLAARGAHVRQVPMGRLTRGVLHSKFWVVDGRHIYMGSANMDWRSLTQVKELGAVIYNCSHLAQDLEKTFQTYWVLGVPKAVLPKTWPQNFSSHFNRFQPFHGLFDGVPTTAYFSASPPALCPQGRTRDLEALLAVMGSAQEFIYASVMEYFPTTRFSHPPRYWPVLDNALRAAAFGKGVRVRLLVGCGLNTDPTMFPYLRSLQALSNPAANVSVDVKVFIVPVGNHSNIPFSRVNHSKFMVTEKAAYIGTSNWSEDYFSSTAGVGLVVTQSPGAQPAGATVQEQLRQLFERDWSSRYAVGLDGQAPGQDCVWQG",stoichiometry N,cryo-EM structure [2],4
"human PLD3 luminal domain, wild type (domain or fragment, UniProt Q8IV08 61-490, looked up, four N-linked glycans observed in the cryo-EM structure (all sites except Asn97)) EYGDLHLFGPNQRPAPCYDPCEAVLVESIPEGLDFPNASTGNPSTSQAWLGLLAGAHSSLDIASFYWTLTNNDTHTQEPSAQQGEEVLRQLQTLAPKGVNVRIAVSKPSGPQPQADLQALLQSGAQVRMVDMQKLTHGVLHTKFWVVDQTHFYLGSANMDWRSLTQVKELGVVMYNCSCLARDLTKIFEAYWFLGQAGSSIPSTWPRFYDTRYNQETPMEICLNGTPALAYLASAPPPLCPSGRTPDLKALLNVVDNARSFIYVAVMNYLPTLEFSHPHRFWPAIDDGLRRATYERGVKVRLLISCWGHSEPSMRAFLLSLAALRDNHTHSDIQVKLFVVPADEAQARIPYARVNHNKYMVTERATYIGTSNWSGNYFTETAGTSLLVTQNGRGGLRSQLEAIFLRDWDSPYSHDLDTSADSVGNACRLL",stoichiometry N,cryo-EM structure [3],2
